Experimental data published in patent US20180328929A1 (BIOMERIEUX, published 2018).
Changes are numbered by the printed parent chain.

B1: ORF2-MUT (ORF2 amino acids 394-660 with cysteines 627, 630 and 638 changed to serine, N-terminal 8-his tag) (other)
chain: HHHHHHHHQLFYSRPVVSANGEPTVKLYTSVENAQQDKGIAIPHDIDLGESRVVIQDYDNQHEQDRPTPSPAPSRPFSVLRANDVLWLSLTAAEYDQSTYGSSTGPVYVSDSVTLVNVATGAQAVARSLDWTKVTLDGRPLSTTQQYSKTFFVLPLRGKLSFWEAGTTKAGYPYNYNTTASDQLLVENAAGHRVAISTYTTSLGAGPVSISAVAVLAPHSALALLEDTMDYPARAHTFDDFSPESRPLGLQGSAFQSTVAELQRLKMKVGKTREL
notes: Made in E. coli; also called p-ORF2-MUT; construction according to the invention
B2: ORF2-REF (ORF2 amino acids 394-660 of hepatitis E virus isolate Human/China/HeBei/1987, N-terminal 8-his tag) (other)
chain: B1 chain with S242C, S245C, S253C
notes: Made in E. coli, dissolved from inclusion bodies in urea, Ni-NTA purified, dialyzed; Heterogeneous: covalent dimers (major form), non-covalent dimers, high-molecular-weight forms and aggregates; also called p-ORF2.1 polypeptide

Legend:
[1] = target: the molecule itself; assay: SDS-PAGE, non-heated (self-association)
[2] = target: the molecule itself; assay: SDS-PAGE (self-association)

Row | Protein | binding result [1] | binding result [2]
1 | B1 | binds | 
2 | B2 |  | binds
